Assay results from US20210380664A1.

How the values were obtained:
[1] = molecular target: HCMV virus particles, strain TB40/E; test: immunofluorescence: intensity of anti-human Fc staining per virus particle on HFFs at different PDGFR-alpha-Fc concentrations
[2] = molecular target: HCMV virus particles, strain TB40/E; test: cell-based or functional assay

For “soluble PDGFR-alpha-Fc chimera (R&D 6765-PR-050) (Fc fusion)”, the EC50 [1] was 0.108 µg/mL, the EC50 of inhibition of infection of HECs (IE antigen staining) [2] was 0.02 to 0.05 µg/mL and the EC50 of inhibition of infection of HFFs (IE antigen staining) [2] was 0.01 to 0.02 µg/mL. For the same substance, the complete abrogation of infection of HFFs [2] was 200 ng/mL, the infectivity of already adsorbed virus on HFFs (200 ng/ml, post adsorption) [2] was 50% and the reduction of adsorption of pre-treated virus particles to HECs (100 ng/ml) [2] was 75%. The reduction of adsorption of pre-treated virus particles to HFFs (100 ng/ml) [2] was 50% and the reduction of penetration of pre-treated virus particles into HFFs (100 ng/ml) [2] was 75%.
